According to patent US20250170227A1:
Blank lines part the entries; values can stand above or below the substance they belong to.

Experiments:
C1s [1] = experiment: C1s activity inhibition; 40x periodate
C1s [2] = experiment: C1s activity inhibition; 10x periodate
C1s [3] = experiment: C1s activity inhibition; 20x periodate
C1s [4] = experiment: C1s activity inhibition

IC50 (C1s [1]): 2.7 nM
Substance: Cinryze-PEG5k-40x

IC50 (C1s [2]): 1.45 nM
Substance: Cinryze-5k-10x

IC50 (C1s [3]): 2.26 nM
Substance: Cinryze-5k-20x

IC50 (C1s [4]): 1.49 nM
Substance: Cinryze
